Assay results published in patent US20120184713A1, “Compositions and Methods for Modulation of Bone Density and Biomineralization” (priority 2011, published 2012).
Changes are numbered by the printed parent chain. Numbers in names are those of the source. One block for each molecule: values may come before it.

Assays:
[1] = biological target: T1, FAM20C (Mus musculus, UniProt Q5MJS3); assay: FAM20C in vitro kinase assay with dephosphorylated alpha-Casein as substrate; assay type: biochemical; conditions: Casein as model substrate; 5 minute assays
T1 construct: His (from vector pcDNA3.1/V5-His B) (C); made in house; host or cells: HEK293T
T1 sequence (Q5MJS3 88-579): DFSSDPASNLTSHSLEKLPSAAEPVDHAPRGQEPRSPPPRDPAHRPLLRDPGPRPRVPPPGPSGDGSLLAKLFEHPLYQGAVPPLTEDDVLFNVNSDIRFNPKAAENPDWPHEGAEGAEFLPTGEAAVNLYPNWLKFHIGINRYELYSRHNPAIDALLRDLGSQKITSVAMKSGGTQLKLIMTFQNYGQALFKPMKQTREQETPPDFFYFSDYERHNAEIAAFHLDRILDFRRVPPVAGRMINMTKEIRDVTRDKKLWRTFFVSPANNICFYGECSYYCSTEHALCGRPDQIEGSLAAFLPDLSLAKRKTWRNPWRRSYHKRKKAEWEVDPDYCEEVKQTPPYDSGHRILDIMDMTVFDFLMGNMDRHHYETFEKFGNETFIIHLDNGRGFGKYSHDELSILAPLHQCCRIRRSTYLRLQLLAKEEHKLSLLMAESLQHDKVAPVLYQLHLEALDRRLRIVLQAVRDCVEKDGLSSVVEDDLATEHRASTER
Method: For FAM20C:V5 purification, pcDNA-FAM20C:V5 was transfected to HEK293T cells, and FAM20C:V5 was purified from conditioned media using anti-V5 agarose beads (Sigma). Condition media were incubated with anti-V5 affinity gel (Sigma) overnight at 4° C. Agarose beads were collected by centrifugation, and washed 5 times with TBS. Proteins were eluted using V5 peptides in TBS (Sigma, final concentration: 100 μg/ml). For purification of OPN:FLAG, BSP:FLAG, DMP1:FLAG, DSPP:FLAG and MEPE:FLAG, condition media were incubated with anti-FLAG M2 affinity gel (Sigma) overnight at 4° C. Agarose beads were collected by centrifugation, and washed 5 times with TBS. Purified quantification was performed on gels stained by SYPRO Ruby Protein Gel Stain (Invitrogen), using BSA as a standard.
FAM20C kinase assays were performed in 10 μl reactions, with 500 μM ATP, including 3 μCi (0.05 μM) of [gamma-^32P]ATP (6000 Ci/mmol, PerkinElmer), 50 mM Tris (pH 7.0), 10 mM MnCl2, 0.1% BSA, purified FAM20C:V5 (5 ng, […]), and dephosphorylated alpha-Casein (0.1 μg, Sigma). […] Radioactivity within the gels was detected using a Molecular Dynamics Phosphor Imager. For quantitation of gamma-^32P incorporation, bands were cut out of the gels using the Phosphor Imager pictures as a reference, and then counted by liquid scintillation using a Beckman Coulter LC6500. […]

[2] = tested on: OPN-ASARM peptide; assay: Kinase assays of FAM20C mutant proteins; assay type: biochemical, human; conditions: recombinant mouse FAM20C:V5 mutants; for the mutants OPN-ASARM peptide (1) as substrate, FIG. 8f
Method: Site-specific mutagenesis was performed by PCR essentially as described^26, by using primers […] and […] (SEQ ID NO: 25) (FAM20C^GG), […] (SEQ ID NO: 26) and […] (FAM20C^D453G) (SEQ ID NO: 27), […] (SEQ ID NO: 28) and […] (FAM20C^G374R) (SEQ ID NO: 29), […] and […] (FAM20C^G374E) (SEQ ID NO: 30), […] (SEQ ID NO: 31) and […] (FAM20C^E383R) (SEQ ID NO: 32), […] (SEQ ID NO: 33) and […] (FAM20C^R544W) (SEQ ID NO: 34), […] (SEQ ID NO: 35) and […] (FAM20C^1241N)(SEQ ID NO: 36), […] (SEQ ID NO: 37) and […] (FAM20C^G261R) (SEQ ID NO: 38), […] (SEQ ID NO: 39) and […] (FAM20C^D446N) (SEQ ID NO:40). All mutations were confirmed by DNA sequencing.
FAM20C kinase assay with peptides substrates were performed in 10 μl reactions, with 500 μM ATP, including 3 μCi (0.05 μM) of [gamma-^32P]ATP (6000 Ci/mmol, PerkinElmer), 50 mM Tris (pH 7.0), 10 mM MnCl2, 0.1% BSA, purified FAM20C:V5 and peptides. Casein Kinase I (500 units, NEB) was used as a control kinase. mutant versions (5 ng, […]), and peptides (2.5 μg, 1 nmol as a standard condition. 250 ng, […] in FAM20C mutants). Reactions were stopped by adding 1.5 μl 0.1N—HCl, and one half of the reaction volume was pipetted on to P81 phospho-cellulose filter paper^27. The filter papers were washed with 0.5% phosphoric acid and subjected to liquid scintillation counting.

V. [1]: 0.7 μM ATP/min/mg FAM20C
B1: FAM20C: affinity purified V5-tagged mouse FAM20C, Golgi-localized protein kinase (protein)
chain: T1 sequence (Q5MJS3 88-579)
modifications: left off: small tags and cut ends
turnover number (kcat) [1]: 52 per minute

B2: G374E: recombinant mouse FAM20C:V5 carrying Raine syndrome patient mutation G374E (protein, UniProt Q5MJS3 88-579, looked up, variant G374E)
Extracellular …: T1 sequence (Q5MJS3 88-579) with G287E
modifications: V5 tag
kinase activity of FAM20C mutant isoform [2]: no detectable kinase activity

B3: 1241N: recombinant mouse FAM20C:V5 carrying Raine syndrome patient mutation 1241N (protein, UniProt Q5MJS3 88-579, looked up, variant I241N)
Extracellular …: T1 sequence (Q5MJS3 88-579) with I154N
modifications: V5 tag
notes: recombinant mouse FAM20C:V5 carrying Raine syndrome patient mutation 1241N
kinase activity of FAM20C mutant isoform [2]: no detectable kinase activity

B4: D453G: FAM20C:V5 with a mutation in a conserved Asp residue (protein, UniProt Q5MJS3 88-579, looked up, variant D453G)
Extracellular …: T1 sequence (Q5MJS3 88-579) with D366G
modifications: V5 tag
notes: FAM20C:V5 with a mutation in a conserved Asp residue
kinase activity of FAM20C mutant isoform [2]: abolished catalytic activity

B5: G261R: recombinant mouse FAM20C:V5 carrying Raine syndrome patient mutation G261R (protein, UniProt Q5MJS3 88-579, looked up, variant G261R)
Extracellular …: T1 sequence (Q5MJS3 88-579) with G174R
modifications: V5 tag
kinase activity of FAM20C mutant isoform [2]: diminished kinase activity

B6: DN473-474GG: FAM20C:V5 with a mutation in a motif predicted to bind metal ion cofactors (protein, UniProt Q5MJS3 88-579, looked up, variant D473G N474G)
Extracellular …: T1 sequence (Q5MJS3 88-579) with D386G, N387G
modifications: V5 tag
kinase activity of FAM20C mutant isoform [2]: abolished catalytic activity

B7: G374R: recombinant mouse FAM20C:V5 carrying Raine syndrome patient mutation G374R (protein, UniProt Q5MJS3 88-579, looked up, variant G374R)
Extracellular …: T1 sequence (Q5MJS3 88-579) with G287R
modifications: V5 tag
kinase activity of FAM20C mutant isoform [2]: no detectable kinase activity
